Test results reported in the RNAGym collection of RNA variant scans (doi:10.7554/elife.90254).

B1: LINE1-full (parent)
chain: UACGUAGGUGGUUUUCCCCUGAUAGUGCUAAGGGGGCCUGGAAGUUUGGACUGGGCAGAGCUCAACACAGCGUGGCAAAGUGGCUGUGGCUAGACUGCCUCUCUGGAUUCCUCGUCACUCAGCAGGGCAUCUCUGAGAGAAAUGCC

Variants of: B1
Assay: self-cleavage, relative activity (ratio to wild type); higher = more cleavage; in vitro, sequencing; the parent is a self-cleaving ribozyme

Variant	self-cleavage
G8C A129G	1.31
A6G A24U	1.21
A6G A24G	1.21
A6G G7A	0.43
A6G G7U	1.33
A6C A57G	0.92
U5C G35U	1.19
G7U A107G	1.36
U5G U39C	0.63
A6G A136G	1.17
G7A A129U	1.21
G7A U9C	0.68
G8A U119A	2.47
G8A U119C	1.1
U5G A59G	0.19
U5C U143C	0.11
A6G G11C	0.31
A6G G11A	2.36
G8A U104C	1.29
G8A U104A	1.25
U5C G40A	0.42
G7C U85C	1.26
U5G G34C	0.94
A6G G60U	0.19

Variant	self-cleavage
A6U A117G	0.3
A6U A117U	1.53
A6G G32C	0.65
A6G C98U	0.42
U5G U112A	0
U5C U96C	0.26
U5C U96A	0.12
U5C A6U	1.09
G7A G54A	0.4
A6U A59G	0.11
A6U A59C	0.74
A6C U100C	0.66
U5C G41U	1.03
U5C G48A	0.45
A6U U87G	0.12
A6U A124U	1.51
A6C A129U	0.77
U5C U132A	1.98
A6U U132C	1.33
G8A A50G	0.85
G7C U143C	1.93
G7A A142G	1.59
A6U A30G	1.01
A6U A30U	0.58

Variant	self-cleavage
A6U G41A	1.52
U5C U23C	0.83
U5C A129U	1.05
U5C A129C	1.69
A6G A64U	0.87
G8C U39C	0.91
U5C U52A	1.02
U5C U52C	1.23
U5C U52G	1.23
G7U U73C	1.55
A6U U85C	0.4
A6G U23G	0.85
G7A C111U	0.35
G7A U26C	2
A6G U26A	0.68
G7U U115C	0.79
A6U G55U	0.4
U5G A138G	0.2
A6U U119C	0.75
A6U U115C	1.28
A6G U100C	0.87
G7U C16U	1.5
A6G U115C	0.7
U5C U62A	0

Variant	self-cleavage
A6U C66U	0.09
A6G G86A	0.31
A6G U9C	1.16
G8A A67C	0
A6G U52C	0.72
G7U G70A	0.2
G8A A65G	0
U5C G36C	1.25
A6G C145U	1.64
A6U G126U	1.16
A6U G126A	1.8
U5C U46A	1.29
A6G G137U	0.81
A6G A42G	1.15
A6G A42U	0.82
G7U U13A	0.71
G7U U13C	0.99
A6G U47C	0.53
A6G U47A	0.91
G7A C56U	0.17
G7U U85A	0.13
A6G A77U	0.92
A6G A77G	1.18
G7U G54C	0.49

Variant	self-cleavage
G7U G54A	0.94
A6G U15A	0.58
A6G U15C	0.84
G7A U115C	1.21
A6U G53A	0.9
A6G U73A	1.11
G7A A141G	0.69
A6U A142C	0.28
A6U A142G	0.81
G7A U102C	1.77
A6U U62A	0.06
G7C U52A	1.32
A6G U13C	0.93
G8A U132C	1.58
G7A A138G	1.37
G7A U13C	0.81
G7A A107G	1.22
U5G U119C	1.02
U5C A92G	0
U5G A141G	0.49
U5C G137A	1.38
G7U U45C	0.86
G8A A121G	0.54
G8A A121C	0.46

Variant	self-cleavage
G7U U87C	0.18
G7U U87A	0.12
A6G U143A	0.89
A6G U104C	1.23
G7A G75A	0.95
A6U U12G	1.21
A6U U12A	0.84
G7C A140G	1.37
A6U U52C	1.02
U5C C76U	1.88
A6U U46A	1.07
G8C U14G	1.39
U5C U91G	0
G7A C18U	1.59
G7U A57G	0.12
U5C A65G	0.15
U5C A65U	0.26
U5C G127C	1.12
A6G U81C	1.78
U5C A141G	0.92
G7A	1.08
G7U	1.35
G7C	1.4
U5C U47C	0.67

Variant	self-cleavage
U5C U47A	0.92
G7C U81A	2.25
A6G U119C	0.73
G7C A69G	0.79
A6U U9C	0.36
A6U U9A	1.56
G7U U52C	1.1
U5C A94U	0.76
U5C A94C	0
U5C U109A	0.74
A6G G40A	0.84
A6G U14C	0.61
A6U A64C	0.68
A6G U134A	0.52
A6G U134C	0.85
A6G G139U	0.96
A6U U73C	1.21
G8A C37U	1.31
G7C A129U	1.17
A6G C66U	0.15
U5C G75A	1.15
U5C C84U	0.18
U5C G34U	0.82
G8C A138G	1.44

Variant	self-cleavage
U5C C18A	0.67
A6C A121U	1.18
U5C U13C	0.87
A6U C71U	1.15
A6G A57G	0.64
A6G A57U	0.42
A6U G105U	1.71
G8A U81C	1.25
U5G A64C	0.19
A6G U20G	1.34
A6U A69G	0.89
G7A U45A	0.53
U5C C128U	1.53
G7A U23A	0.85
U5C A64U	0.49
A6U G32U	0.54
G7C G40A	1.27
A6U C133A	0.49
G7U U20C	1.15
G8A A140G	1.55
U5C U26C	1.23
U5C A67G	0.67
A6U G54U	0.94
A6U G137A	1.53

Variant	self-cleavage
G8A U62C	0.05
G8A U62G	0
G7C U12G	1.19
G8A G48A	0.44
U5C G60A	0.08
G8A U13C	1.05
U5C U15A	0.63
U5C A142G	1.15
A6C A141G	1.71
U5C A78G	1.18
G8A A59G	0.16
U5C A140U	0.86
A6U U109A	0.99
G7U G40A	1.47
A6G A94G	0.31
A6G A94U	0.3
G8C A121C	1.75
G7C A92G	0
A6U A24G	1.13
A6U A121G	0.87
A6G G83A	0.26
G8A U46A	2.02
U5C U14C	0.99
G8A A107G	1.58

Variant	self-cleavage
U5C U134A	0.62
U5C U134C	0.33
U5G A50U	0.38
G7C U102C	0
A6G C111U	1
A6U G72A	1.2
A6G A121G	1.14
A6G A121U	0.99
A6C U134C	0.61
G7U A30G	0.78
G7U C123U	1.39
G8A U20C	1.59
G7A A124G	0.6
G7A A124C	1.37
G7A U143C	1.29
G8A C38U	1.41
G7A C71A	0.29
G7A A30U	0.92
U5C U130A	0.77
G8A A78G	2.03
U5C C37U	1.02
U5C A57G	0.93
U5C A57U	0.29
A6G A59G	0.1

Variant	self-cleavage
G8A U143C	1.45
A6U U47C	0.8
U5C U112C	0.99
U5C U112A	1.15
U5C A138G	1.18
U5C A138U	1.58
A6G U85G	0
A6G U85A	0
A6G U85C	0.2
G7C U73C	0.74
G7A U109C	1.19
G7U A142G	1.15
A6G U87A	0.17
G8A G97A	0.41
G7A U100C	2.45
G7A U130C	0.94
U5C A43G	1.03
U5C A43U	1.48
G7U U91A	1.12
U5C C111U	0.85
G8A A77U	1.23
A6G A22U	1.11
U5C G8A	0.24
A6G G55U	0.41

Variant	self-cleavage
G7U U112C	1.15
G7U U112A	1.06
G8C A142G	1.21
A6G A141G	1.03
U5C U81C	0.8
G7C U13C	2.07
U5C A50U	0.64
U5C A69G	0.78
A6U U81C	1.06
G8C A140G	2.03
A6G A124G	0.38
A6U G114A	0
G7U A65G	0.13
G7U A65U	0.17
G7U A140G	1.33
G8A A141G	1.1
G8A A142G	1.45
A6G C18U	0.59
A6U G36A	0.88
U5C C120U	1.26
G7A U52A	0.89
G7C G48A	0.92
G7U A136G	1.86
U5C C66U	0.13

Variant	self-cleavage
U5C C110A	1.19
A6G U132C	0.9
A6U U104C	1.02
G7U A124G	1.19
A6U U26A	0.87
A6U U26C	0.94
G7A U91C	0.34
U5C U104C	1.11
A6U A43U	0.89
A6U A43G	1.01
A6U C18U	0.84
G8A U134C	1.55
U5C A117G	0.81
U5C A117U	1.03
G8C G75A	1.2
G7U U47A	1.2
G8A U14C	1.32
A6G A138G	1.11
A6G A138U	0.67
G8C A50G	1.14
A6G A43G	1.35
A6U U134A	1.28
U5C U119C	1.41
U5G U100C	1.15

Variant	self-cleavage
A6U A77G	1.51
G7U U132C	1.23
A6U U13C	1.25
U5C U87A	0.15
A6C C113U	1.35
G8A C131A	0.51
A6G U130A	1.18
A6U A67U	0.22
A6U A67G	0.49
G7U U9C	1.56
U5C C38A	1.79
G7A U47C	1.21
A6G A31G	0.66
U5C A136G	1.62
A6U A136G	1.33
G8A G86A	0.09
A6U A92U	0.47
A6U A92G	0.27
U5C G74A	1.19
U5C U73A	1.74
A6G U91C	0.51
A6G A30G	1.14
